Measurements: article doi:10.1101/553511 (bioRxiv, 2019)

B1: KAP1 RBCC domain (RBCC, 23-418) (domain or fragment)
chain: GEGSAGGEKRSTAPSAAASASASAAASSPAGGGAEALELLEHCGVCRERLRPEREPRLLPCLHSACSACLGPAAPAAANSSGDGGAAGDGTVVDCPVCKQQCFSKDIVENYFMRDSGSKAATDAQDANQCCTSCEDNAPATSYCVECSEPLCETCVEAHQRVKYTKDHTVRSTGPAKSRDGERTVYCNVHKHEPLVLFCESCDTLTCRDCQLNAHKDHQYQFLEDAVRNQRKLLASLVKRLGDKHATLQKSTKEVRSSIRQVSDVQKRVQVDVKMAILQIMKELNKRGRVLVNDAQKVTEGQQERLERQHWTMTKIQKHQEHILRFASWALESDNNTALLLSKKLIYFQLHRALKMIVDPVEPHGEMKFQWDLNAWTKSAEAFGKIVAERPGTNST
B2: KAP1 full length protein (KAP1 FL, 1-835) (natural protein)
chain: MAASAAAASAAAASAASGSPGPGEGSAGGEKRSTAPSAAASASASAAASSPAGGGAEALELLEHCGVCRERLRPEREPRLLPCLHSACSACLGPAAPAAANSSGDGGAAGDGTVVDCPVCKQQCFSKDIVENYFMRDSGSKAATDAQDANQCCTSCEDNAPATSYCVECSEPLCETCVEAHQRVKYTKDHTVRSTGPAKSRDGERTVYCNVHKHEPLVLFCESCDTLTCRDCQLNAHKDHQYQFLEDAVRNQRKLLASLVKRLGDKHATLQKSTKEVRSSIRQVSDVQKRVQVDVKMAILQIMKELNKRGRVLVNDAQKVTEGQQERLERQHWTMTKIQKHQEHILRFASWALESDNNTALLLSKKLIYFQLHRALKMIVDPVEPHGEMKFQWDLNAWTKSAEAFGKIVAERPGTNSTGPAPMAPPRAPGPLSKQGSGSSQPMEVQEGYGFGSGDDPYSSAEPHVSGVKRSRSGEGEVSGLMRKVPRVSLERLDLDLTADSQPPVFKVFPGSTTEDYNLIVIERGAAAAATGQPGTAPAGTPGAPPLAGMAIVKEEETEAAIGAPPTATEGPETKPVLMALAEGPGAEGPRLASPSGSTSSGLEVVAPEGTSAPGGGPGTLDDSATICRVCQKPGDLVMCNQCEFCFHLDCHLPALQDVPGEEWSCSLCHVLPDLKEEDGSLSLDGADSTGVVAKLSPANQRKCERVLLALFCHEPCRPLHQLATDSTFSLDQPGGTLDLTLIRARLQEKLSPPYSSPQEFAQDVGRMFKQFNKLTEDKADVQSIIGLQRFFETRMNEAFGDTKFSAVLVEPPPMSLPGAGLSSQELSGGPGDGP
B3: ΔKAP1 (23-812) (domain or fragment)
chain: GEGSAGGEKRSTAPSAAASASASAAASSPAGGGAEALELLEHCGVCRERLRPEREPRLLPCLHSACSACLGPAAPAAANSSGDGGAAGDGTVVDCPVCKQQCFSKDIVENYFMRDSGSKAATDAQDANQCCTSCEDNAPATSYCVECSEPLCETCVEAHQRVKYTKDHTVRSTGPAKSRDGERTVYCNVHKHEPLVLFCESCDTLTCRDCQLNAHKDHQYQFLEDAVRNQRKLLASLVKRLGDKHATLQKSTKEVRSSIRQVSDVQKRVQVDVKMAILQIMKELNKRGRVLVNDAQKVTEGQQERLERQHWTMTKIQKHQEHILRFASWALESDNNTALLLSKKLIYFQLHRALKMIVDPVEPHGEMKFQWDLNAWTKSAEAFGKIVAERPGTNSTGPAPMAPPRAPGPLSKQGSGSSQPMEVQEGYGFGSGDDPYSSAEPHVSGVKRSRSGEGEVSGLMRKVPRVSLERLDLDLTADSQPPVFKVFPGSTTEDYNLIVIERGAAAAATGQPGTAPAGTPGAPPLAGMAIVKEEETEAAIGAPPTATEGPETKPVLMALAEGPGAEGPRLASPSGSTSSGLEVVAPEGTSAPGGGPGTLDDSATICRVCQKPGDLVMCNQCEFCFHLDCHLPALQDVPGEEWSCSLCHVLPDLKEEDGSLSLDGADSTGVVAKLSPANQRKCERVLLALFCHEPCRPLHQLATDSTFSLDQPGGTLDLTLIRARLQEKLSPPYSSPQEFAQDVGRMFKQFNKLTEDKADVQSIIGLQRFFETRMNEAFGDTKFSAVLVEP

Target: the molecule itself
Assay: SEC-MALS

Protein | stoichiometry N
B1 | 2
B2 | 2
B3 | 2
